# Reference: US20260022175A1 (Chugai, published 2026)
# Experiments:
# human CTLA4 [1] = target: T1, human CTLA4 (human); assay: SPR Biacore T200, 37C, antibody captured, ATP 1 uM
# T1 construct: also called hCTLA4; hCTLA4-His-BAP
# human CTLA4 [2] = target: T1, human CTLA4; assay: SPR Biacore T200, 37C, antibody captured, AMP 10 uM
# Method: (§1) Biacore T200 was used to measure the binding of the generated antibodies to human CTLA4. 20 mM ACES (pH 7.4), 150 mM NaCl, 2 mM MgCl₂, 0.05% Tween 20 with ATP added to the desired concentration was used as the running buffer, and the assay was performed at 37° C. First, Protein G (CALBIOCHEM) was immobilized onto a Series S Sensor Chip CM3 (GE Healthcare), and the antibodies were captured by interacting an antibody solution prepared in an ATP-free running buffer with the chip. Next, by interacting with a human CTLA4 solution prepared in a running buffer containing ATP to the desired concentration, or a human CTLA4 solution prepared in a running buffer containing no ATP, the binding ability of the antibody to human CTLA4 in the presence or absence of ATP was evaluated. Chips were regenerated with 25 mM NaOH and 10 mM Glycine-HCl (pH 1.5), and assay was performed by repeatedly capturing antibodies. The dissociation constant of each antibody for CTLA4 was calculated using Biacore T200 Evaluation Software 2.0. Specifically, the binding rate constant ka (L/mol/s) and the dissociation rate constant kd (1/s) were calculated by global fitting of the sensorgrams obtained by the measurement, using a 1:1 Langmuir binding model. The dissociation constant KD (mol/L) was calculated from those values. Alternatively, the dissociation constant KD (mol/L) was calculated by the steady state model. In addition, the binding amount of CTLA4 per unit amount of antibody was calculated by correcting the amount of CTLA4 bound as calculated from the sensorgram obtained by the assay with the amount of antibody captured onto the chip surface.
# (§2) The binding ability of the generated variants to human CTLA4 in the presence of ADP or AMP was evaluated by Biacore T200 and compared with the binding ability in the presence of ATP.
# human CTLA4 [3] = target: T1, human CTLA4; assay: SPR Biacore T200, 37C, antibody captured, ATP 10 uM
# human CTLA4 [4] = target: T1, human CTLA4; assay: SPR Biacore T200, 37C, antibody captured, ADP 10 uM;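 further: antibodies held on a Protein G CM3 chip, human CTLA4 as analyte in ACES pH 7.4 buffer, rates from a global 1:1 Langmuir fit, Kd from rates or steady state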
# Method: as §1, §2
# human CTLA4 [5] = target: T1, human CTLA4; assay: SPR Biacore T200, 37C, antibody captured, ATP 10 uM; remark: listed apart in the source
# human CTLA4 [6] = target: T1, human CTLA4; assay: SPR Biacore T200, 37C, antibody captured, no ATP, steady state model
# Method: Biacore T200 was used to measure the binding of the generated antibodies to human CTLA4. 20 mM ACES (pH 7.4), 150 mM NaCl, 2 mM MgCl₂, 0.05% Tween 20 with ATP added to the desired concentration was used as the running buffer, and the assay was performed at 37° C. First, Protein G (CALBIOCHEM) was immobilized onto a Series S Sensor Chip CM3 (GE Healthcare), and the antibodies were captured by interacting an antibody solution prepared in an ATP-free running buffer with the chip. Next, by interacting with a human CTLA4 solution prepared in a running buffer containing ATP to the desired concentration, or a human CTLA4 solution prepared in a running buffer containing no ATP, the binding ability of the antibody to human CTLA4 in the presence or absence of ATP was evaluated. Chips were regenerated with 25 mM NaOH and 10 mM Glycine-HCl (pH 1.5), and assay was performed by repeatedly capturing antibodies. The dissociation constant of each antibody for CTLA4 was calculated using Biacore T200 Evaluation Software 2.0. Specifically, the binding rate constant ka (L/mol/s) and the dissociation rate constant kd (1/s) were calculated by global fitting of the sensorgrams obtained by the measurement, using a 1:1 Langmuir binding model. The dissociation constant KD (mol/L) was calculated from those values. Alternatively, the dissociation constant KD (mol/L) was calculated by the steady state model.
# T1 sequence (chain, as listed by the source limits assumed): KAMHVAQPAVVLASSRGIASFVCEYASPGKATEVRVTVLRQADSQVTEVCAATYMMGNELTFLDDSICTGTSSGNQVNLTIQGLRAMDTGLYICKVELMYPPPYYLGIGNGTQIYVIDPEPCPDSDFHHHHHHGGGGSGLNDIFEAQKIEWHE
Kd (human CTLA4 [1]),Kd (human CTLA4 [2]),koff (human CTLA4 [2]),kon (human CTLA4 [2]),Kd (human CTLA4 [3]),koff (human CTLA4 [3]),kon (human CTLA4 [3]),Kd (human CTLA4 [4]),koff (human CTLA4 [4]),kon (human CTLA4 [4]),Kd (human CTLA4 [5]),Kd (human CTLA4 [6]),Binder
100 nM,70 nM,0.01 s⁻¹,150000 M⁻¹ s⁻¹,15 nM,0.0019 s⁻¹,120000 M⁻¹ s⁻¹,22 nM,0.0035 s⁻¹,160000 M⁻¹ s⁻¹,18 nM,3300 nM,"04H1637-G1m/04L1610-lam1 (antibody, human IgG1, lambda) heavy: not shown light: QSALTQPPSASGSPGQSVTISCEGPSTGVGDYNWVHWYQQHPGKAPKLMIYFTSKKPSGVPDRFSGSKSGNTASLTVSGLQAEDEADYYCQTYAAPLGPMFGGGTKLTVLGQPKAAPSVTLFPPSSEELQANKATLVCLISDFYPGAVTVAWKADSSPVKAGVETTTPSKQSNNKYAASSYLSLTPEQWKSHRSYSCQVTHEGSTVEKTVAPTECS"
95 nM,100 nM,0.016 s⁻¹,160000 M⁻¹ s⁻¹,19 nM,0.0022 s⁻¹,120000 M⁻¹ s⁻¹,30 nM,0.0048 s⁻¹,160000 M⁻¹ s⁻¹,19 nM,2300 nM,"04H1656-G1m/04L1606-lam1 (antibody, human IgG1, lambda, V domains shown) VH: QVQLVESGGGVVQPGGSLRLSCAASGFTFSSKTMNWVRQAPGKGLEWVSSISTQSHYIYYAESVRGRFTISRDNAKNSLYLQMNSLRAEDTAVYYCARYGAREDMLWVFDYWGQGTLVTVSS VL: QSALTQPPSASGSPGQSVTISCQGPSTGVGDYNWVHWYQQHPGKAPKLMIYFTSKKPSGVPDRFSGSKSGNTASLTVSGLQAEDEADYYCQTYAAPLGPMFGGGTKLTVLG"
89 nM,,,,,,,,,,17 nM,3200 nM,"04H1637-G1m/04L1581-lam1 (antibody, human IgG1, lambda, V domains shown) VH: QVQLVESGGGLVKPGGSLRLSCAASGFTFSSKTMNWVRQAPGKGLEWVSSISTQSHYIYYAESVRGRFTISRDNAKNSLYLQMNSLRAEDTAVYYCARYGKREDMLWVFDYWGQGTLVTVSS VL: QSALTQPPSASGSPGQSVTISCQGPSTGVGDYTWVHWYQQHPGKAPKLMIYFTIKKPKGVPDRFSGSKSGNTASLTVSGLQAEDEADYYCQTYAAPLGPMFGGGTKLTVLG"
160 nM,,,,,,,,,,30 nM,5300 nM,"04H1637-G1m/04L1086-lam1 (antibody, human IgG1, lambda) heavy: not shown light: QSALTQPPSASGSPGQTVTISCDGPSTGVGDYNYVHWYQQHPGKAPKLMIYFTSKKPSGVPDRFSGSKSGNTASLTVSGLQAEDEADYFCQTYAAPLGPMFGGGTKLTVLGQPKAAPSVTLFPPSSEELQANKATLVCLISDFYPGAVTVAWKADSSPVKAGVETTTPSKQSNNKYAASSYLSLTPEQWKSHRSYSCQVTHEGSTVEKTVAPTECS"
140 nM,110 nM,0.009 s⁻¹,81000 M⁻¹ s⁻¹,21 nM,0.0013 s⁻¹,65000 M⁻¹ s⁻¹,35 nM,0.0028 s⁻¹,80000 M⁻¹ s⁻¹,25 nM,6800 nM,"04H1654-G1m/04L1606-lam1 (antibody, human IgG1, lambda, V domains shown) VH: QVQLVESGGGVVQPGGSLRLSCAASGFTFSSKTMNWVRQAPGKGLEWVSSISTQSHYIYYARSVRGRFTISRDNAKNSLYLQMNSLRAEDTAVYYCARYGKREDMLWVFDYWGQGTLVTVSS VL: QSALTQPPSASGSPGQSVTISCQGPSTGVGDYNWVHWYQQHPGKAPKLMIYFTSKKPSGVPDRFSGSKSGNTASLTVSGLQAEDEADYYCQTYAAPLGPMFGGGTKLTVLG"
89 nM,,,,,,,,,,14 nM,2800 nM,"04H1643-G1m/04L1610-lam1 (antibody, human IgG1, lambda) heavy: not shown light: QSALTQPPSASGSPGQSVTISCEGPSTGVGDYNWVHWYQQHPGKAPKLMIYFTSKKPSGVPDRFSGSKSGNTASLTVSGLQAEDEADYYCQTYAAPLGPMFGGGTKLTVLGQPKAAPSVTLFPPSSEELQANKATLVCLISDFYPGAVTVAWKADSSPVKAGVETTTPSKQSNNKYAASSYLSLTPEQWKSHRSYSCQVTHEGSTVEKTVAPTECS"
140 nM,,,,,,,,,,28 nM,4300 nM,"04H1637-G1m/04L1594-lam1 (antibody, human IgG1, lambda, V domains shown) VH: QVQLVESGGGLVKPGGSLRLSCAASGFTFSSKTMNWVRQAPGKGLEWVSSISTQSHYIYYAESVRGRFTISRDNAKNSLYLQMNSLRAEDTAVYYCARYGKREDMLWVFDYWGQGTLVTVSS VL: QSALTQPPSASGSPGQSVTISCQGPSTGVGDYNWVHWYQQHPGKAPKLMIYFTSKKPKGVPDRFSGSKSGNTASLTVSGLQAEDEADYYCQTYAAPLGPMFGGGTKLTVLG"
140 nM,,,,,,,,,,28 nM,5300 nM,"04H1389v373-G1m/04L1086-lam1 (antibody, human IgG1, lambda) heavy: not shown light: QSALTQPPSASGSPGQTVTISCDGPSTGVGDYNYVHWYQQHPGKAPKLMIYFTSKKPSGVPDRFSGSKSGNTASLTVSGLQAEDEADYFCQTYAAPLGPMFGGGTKLTVLGQPKAAPSVTLFPPSSEELQANKATLVCLISDFYPGAVTVAWKADSSPVKAGVETTTPSKQSNNKYAASSYLSLTPEQWKSHRSYSCQVTHEGSTVEKTVAPTECS"
